Columns and labels:
AtWRKY12 [1] = biological target: T1, AtWRKY12 (Arabidopsis thaliana, UniProt Q93WY4 SEQ:1-218); experiment: EMSA; 100 ng protein, 20 min, Pierce EMSA kit buffer; conditions: tags: MBP fusion, expressed in E. coli, amylose resin purified; label: 5' biotin on one strand
Text: (§1) To express the recombinant AtWRKY12 protein, the coding sequence was fused in frame with maltose binding protein (MBP), expressed in E. coli, and the recombinant protein was purified using amylose resin. The pure protein was used for EMSA with the NST2 or C3H promoter fragments. Double-strand probe and competitor fragments were made from annealing of separately synthesized strands, with/without one 5′ biotin labeled strand. The sequence used for NST2 was:
(§2) For C3H the sequence was: 5′-[…]-3′ (SEQ ID NO:42); and for C3HL the sequence was 5′-[…]-3′ (SEQ ID NO:43). The conserved WRKY binding motifs are underlined. The biotin-labeled and competitor DNA fragments were incubated for 20 min with 100 ng of AtWRKY12-MBP in binding buffer according to the EMSA kit protocol (Pierce, Rockford, Ill.), and reaction mixtures were loaded for polyacrylamide gel electrophoresis. The DNA was electroblotted onto nitrocellulose membrane and detected by the chemiluminescent method.

AtWRKY12 [2] = biological target: T1, AtWRKY12; experiment: EMSA; 100 ng protein, 20 min; no binding detected; conditions: tags: MBP fusion, expressed in E. coli, amylose resin purified; label: 5' biotin on one strand
Text: as §1, §2

T1 sequence (Q93WY4 whole entry, the tested form may be a part): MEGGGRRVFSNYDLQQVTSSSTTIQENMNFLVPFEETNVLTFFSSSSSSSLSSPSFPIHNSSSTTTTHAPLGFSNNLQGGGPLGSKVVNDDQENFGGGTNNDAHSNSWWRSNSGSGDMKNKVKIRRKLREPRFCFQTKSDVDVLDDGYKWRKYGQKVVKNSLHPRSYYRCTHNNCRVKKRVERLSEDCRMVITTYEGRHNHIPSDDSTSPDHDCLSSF

B1: NST2 promoter fragment (dsDNA)
DNA 1: AAAGAGACCATTAGTATATTTGACCCAAAAAAAAATAAAAAAAAAAGAG
DNA 2: CTCTTTTTTTTTTATTTTTTTTTGGGTCAAATATACTAATGGTCTCTTT
- binding result (AtWRKY12 [1]): binds

B2: C3H14 promoter fragment (dsDNA)
DNA 1: TGGAAGATGCATGTTATTGACTAAATATGATCTACCA
DNA 2: TGGTAGATCATATTTAGTCAATAACATGCATCTTCCA
- binding result (AtWRKY12 [2]): no binding

B3: C3H14L promoter fragment (dsDNA)
DNA 1: TGGCTTAAATCATATTGACAAGACCCATTAAAAAGAGG
DNA 2: CCTCTTTTTAATGGGTCTTGTCAATATGATTTAAGCCA
- binding result (AtWRKY12 [2]): no binding
